Results as given in article PMC11005723, “Development of Complementary Photo‐arginine/lysine to Promote Discovery of Arg/Lys hPTMs Interactomes” (Advanced Science, 2024).
Non-standard residues stand in square brackets, D forms with d. Primed or numbered codes have the meaning given here. No end group written: not given here. *: point of attachment. R(dz)″ = photo-arginine carrying a diazirine photo-crosslinker; Biotin = O=C1N[C@H]2[C@H](CS[C@H]2CCCCC(=O)*)N1

Molecular target: PHD domain of UHRF1 (UHRF1PHD)
Assay: ITC; 25 °C, MicroCal PEAQ-ITC; protein in the cell titrated with 19 injections of peptide

Binder: A[R(dz)″]TKQTARKSTGGK(Biotin)A-NH2 [H3K4‐R2dz (probe 1)]
- Kd: 10.6 µM
